The results in this text go back to PMC10119233 (2022).

In this assay the target is Recombinant Fc-tagged hDLL4 (human, UniProt Q9NR61 27-529). Put plainly: SPR. Background: SPR reads the build-up and loss of mass on a sensor chip optically.
Sequence of Recombinant Fc-tagged hDLL4 (Q9NR61 27-529): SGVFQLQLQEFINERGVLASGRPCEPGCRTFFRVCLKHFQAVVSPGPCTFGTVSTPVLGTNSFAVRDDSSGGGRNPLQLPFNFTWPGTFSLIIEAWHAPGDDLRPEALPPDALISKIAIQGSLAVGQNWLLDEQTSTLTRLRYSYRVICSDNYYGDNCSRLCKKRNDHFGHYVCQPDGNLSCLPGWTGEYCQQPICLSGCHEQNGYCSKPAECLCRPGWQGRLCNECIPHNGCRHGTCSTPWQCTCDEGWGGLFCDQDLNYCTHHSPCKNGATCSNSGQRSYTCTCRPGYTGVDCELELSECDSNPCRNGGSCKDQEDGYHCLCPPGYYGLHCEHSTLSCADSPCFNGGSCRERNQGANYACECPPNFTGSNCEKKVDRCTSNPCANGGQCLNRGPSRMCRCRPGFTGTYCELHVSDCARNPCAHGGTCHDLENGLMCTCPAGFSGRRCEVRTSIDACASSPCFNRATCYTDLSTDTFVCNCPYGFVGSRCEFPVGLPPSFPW

B1: N4_(10-14)Fc, Notch4 EGF-like repeats 10–14 fused to human IgG Fc (Fc fusion)
chain: RGLLCGSFPEPCANGGTCLSLSLGQGTCQCAPGFLGETCQFPDPCQNAQLCQNGGSCQALLPAPLGLPSSPSPLTPSFLCTCLPGFTGERCQAKLEDPCPPSFCSKRGRCHIQASGRPQCSCMPGWTGEQCQLRDFCSANPCVNGGVCLATYPQIQCHCPPGFEGHACERDVNECFQDPGPCPKGTSCHNTLGSFQCLCPVGQEGPRCELRAGPCPPRGCSNGGTCQLMPEKDSTFHLCLCPPGFIGPDCEVNPDNCVSHQCQNGGTCQDGLDTYTCLCPETWTGWDCSEDVDECETQGPPHCRNGGTCQNSAGSFHCVCVSGWGGTSCEENLDDCIAATCAPGSTCIDRVGSFSCLCPPGRTGLLCHLEDMCLSQPCHGDAQCSTNPLTGSTLCLCQPGYSGPTCHQDLDECLMAQQGPSPCEHGGSCLNTPGSFNCLCPPGYTGSRCEADHNECLSQPCHPGSTCLDLLATFHCLCPPGLEGQLCEVETNECASAPCLNHADCHDLLNGFQCICLPGFSGTRCEEDIDECRSSPCANGGQCQDQPGAFHCKCLPGFEGPRCQTEVDECLSDPCPVGASCLDLPGAFFCLCPSGFTGQLCEVPLCAPNLCQPKQICKDQKDKANCLCPDGSPGCAPPEDNCTCHHGHCQRSSCVCDVGWTGPECEAELGGCISAPCAHGGTCYPQPSGYNCTCPTGYTGPTCSEEMTACHSGPCLNGGSCNPSPGGYYCTCPPSHTGPQCQTSTDYCVSAPCFNGGTCVNRPGTFSCLCAMGFQGPRCEGKLRPSCADSPCRNRATCQDSPQGPRCLCPTGYTGGSCQTLMDLCAQKPCPRNSHCLQTGPSFHCLCLQGWTGPLCNLPLSSCQKAALSQGIDVSSLCHNGGLCVDSGPSYFCHCPPGFQGSLCQDHVNPCESRPCQNGATCMAQPSGYLCQCAPGYDGQNCSKELDACQSQPCHNHGTCTPKPGGFHCACPPGFVGLRCEGDVDECLDQPCHPTGTAACHSLANAFYCQCLPGHTGQWCEVEIDPCHSQPCFHGGTCEATAGSPLGFICHCPKGFEGPTCSHRAPSCGFHHCHHGGLCLPSPKPGFPPRCACLSGYGGPDCLTPPAPKGCGPPSPCLYNGSCSETTGLGGPGFRCSCPHSSPGPRCQKPGAKGCEGRSGDGACDAGCSGPGGNWDGGDCSLGVPDPWKGCPSHSRCWLLFRDGQCHPQCDSEECLFDGYDCETPPACTPAYDQYCHDHFHNGHCEKGCNTAECGWDGGDCRPEDGDPEWGPSLALLVVLSPPALDQQLFALARVLSLTLRVGLWVRKDRDGRDMVYPYPGARAEEKLGGTRDPTYQERAAPQTQPLGKETDSLSAGFVVVMGVDLSRCGPDHPASRCPWDPGLLLRFLAAMAAVGALEPLLPGPLLAVHPHAGTAPPANQLPWPVLCSPVAGVILLALGALLVLQLIRRRRREHGALWLPPGFTRRPRTQSAPHRRRPPLGEDSIGLKALKPKAEVDEDGVVMCSGPEEGEEVGQAEETGPPSTCQLWSLSGGCGALPQAAMLTPPQESEMEAPDLDTRGPDGVTPLMSAVCCGEVQSGTFQGAWLGCPEPWEPLLDGGACPQAHTVGTGETPLHLAARFSRPTAARRLLEAGANPNQPDRAGRTPLHAAVAADAREVCQLLLRSRQTAVDARTEDGTTPLMLAARLAVEDLVEELIAAQADVGARDKWGKTALHWAAAVNNARAARSLLQAGADKDAQDNREQTPLFLAAREGAVEVAQLLLGLGAARELRDQAGLAPADVAHQRNHWDLLTLLEGAGPPEARHKATPGREAGPFPRARTVSVSVPPHGGGALPRCRTLSAGAGPRGGGACLQARTWSVDLAARGGGAYSHCRSLSGVGAGGGPTPRGRRFSAGMRGPRPNPAIMRGRYGVAAGRGGRVSTDDWPCDWVALGACGSASNIPIPPPCLTPSPERGSPQLDCGPPALQEMPINQGGEGKK
By koff is commonly meant the first-order rate constant of dissociation. B1: the koff stood at 0.0099 s⁻¹.
